From doi:10.1101/2025.05.22.655486 (bioRxiv, 2025) come the findings set out here.

Experiment [1] deals with Ectodomain of Arabidopsis thaliana FLAGELLIN-SENSING 2, TwinStrep- and HA-tagged (Arabidopsis thaliana, UniProt Q9FL28 24-806). The experiment in a line: ligand-depletion assay.
Experiment [2] has as its target T1, Ectodomain of Arabidopsis thaliana MIK2, TwinStrep- and HA-tagged (Arabidopsis thaliana, UniProt Q8VZG8 44-709).
T1 sequence (looked up): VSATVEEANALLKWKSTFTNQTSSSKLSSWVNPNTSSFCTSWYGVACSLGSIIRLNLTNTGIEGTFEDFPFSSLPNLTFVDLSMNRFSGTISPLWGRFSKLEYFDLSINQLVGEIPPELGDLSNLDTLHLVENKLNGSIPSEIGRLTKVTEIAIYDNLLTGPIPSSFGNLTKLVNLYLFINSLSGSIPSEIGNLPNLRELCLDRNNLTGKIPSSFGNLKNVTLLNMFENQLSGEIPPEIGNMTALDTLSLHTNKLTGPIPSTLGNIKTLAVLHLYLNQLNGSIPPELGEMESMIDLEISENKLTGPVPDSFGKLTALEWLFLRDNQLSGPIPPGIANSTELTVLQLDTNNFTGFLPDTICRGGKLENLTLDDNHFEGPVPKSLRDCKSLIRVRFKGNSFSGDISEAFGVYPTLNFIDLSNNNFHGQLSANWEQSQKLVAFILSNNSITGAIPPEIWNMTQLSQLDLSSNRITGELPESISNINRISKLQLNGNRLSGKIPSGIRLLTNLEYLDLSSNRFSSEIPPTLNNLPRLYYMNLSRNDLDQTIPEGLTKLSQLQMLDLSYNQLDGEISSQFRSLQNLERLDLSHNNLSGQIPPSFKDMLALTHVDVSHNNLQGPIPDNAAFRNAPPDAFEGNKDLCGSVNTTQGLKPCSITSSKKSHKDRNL
The experiment can be described thus: ligand-depletion assay.

Chain of Ectodomain of Arabidopsis thaliana FLAGELLIN-SENSING 2, TwinStrep- and HA-tagged (Q9FL28 24-806): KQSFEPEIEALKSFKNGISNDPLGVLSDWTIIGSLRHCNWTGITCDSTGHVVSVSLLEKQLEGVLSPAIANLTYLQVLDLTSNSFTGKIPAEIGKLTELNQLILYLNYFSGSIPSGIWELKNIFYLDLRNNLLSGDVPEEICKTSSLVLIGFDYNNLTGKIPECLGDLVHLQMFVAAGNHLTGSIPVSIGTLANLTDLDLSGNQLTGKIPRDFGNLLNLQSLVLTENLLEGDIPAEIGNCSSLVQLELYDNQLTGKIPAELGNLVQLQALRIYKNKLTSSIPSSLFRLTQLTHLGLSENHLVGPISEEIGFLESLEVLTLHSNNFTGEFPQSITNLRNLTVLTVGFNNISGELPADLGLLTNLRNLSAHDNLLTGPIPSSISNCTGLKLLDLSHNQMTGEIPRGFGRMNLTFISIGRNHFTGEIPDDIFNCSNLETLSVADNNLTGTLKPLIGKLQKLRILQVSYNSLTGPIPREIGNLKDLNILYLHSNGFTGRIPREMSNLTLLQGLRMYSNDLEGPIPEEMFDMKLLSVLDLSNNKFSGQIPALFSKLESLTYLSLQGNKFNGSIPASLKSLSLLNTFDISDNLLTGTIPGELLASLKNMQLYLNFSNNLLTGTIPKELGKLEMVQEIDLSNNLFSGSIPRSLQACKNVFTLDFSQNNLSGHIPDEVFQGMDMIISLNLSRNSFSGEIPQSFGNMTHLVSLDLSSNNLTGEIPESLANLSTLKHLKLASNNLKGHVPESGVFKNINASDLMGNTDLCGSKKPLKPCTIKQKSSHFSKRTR

Regarding QRLSTGSRINSAKDDAAGLQIA [flg22 peptide], the binding result in experiment [1] is reported as “binds”.
Turning to PVRSSQSSQAGGR [AtSCOOP12 (SERINE-RICH ENDOGENOUS PEPTIDE 12)], the binding result in experiment [2] is “binds”.
